{"source": "patent US20160046944", "about": "“APTAMER TO IL-17 AND USE THEREOF” (THE UNIVERSITY OF TOKYO, published 2016)", "binders": {"B1": {"name": "aptamer No. 27 (mixed)", "mixed": "GGGUAGCCGGAGGAGTCAGTAAUCGGTACCC", "modifications": "2'-OMe (M), 2'-F (F), PS (S) as marked; uppercase DNA [2'-OMe: 1,2,3,4,7,8,10,13,14,21,23,24,25,26,28,29,30,31; 2'-F: 17; PS: 6]"}, "B2": {"name": "aptamer No. 29 (mixed)", "mixed": "GGGUAGCCGGAGGAGTCAGTAAUCGGTACCC", "modifications": "2'-OMe (M), 2'-F (F) as marked; uppercase DNA [2'-OMe: 1,2,3,4,7,8,10,13,14,21,22,23,24,25,26,28,29,30,31; 2'-F: 17]"}, "B3": {"name": "aptamer No. 32 (mixed)", "mixed": "GGGUAGCCGGAGGAGTCAGTAAUCGGTACCC", "modifications": "2'-OMe (M), 2'-F (F) as marked; uppercase DNA [2'-OMe: 1,2,3,4,7,8,10,13,14,21,22,23,24,25,26; 2'-F: 17]"}, "B4": {"name": "aptamer No. 39 (mixed)", "mixed": "GGGUAGCCGGAGGAGTCAGTAAUCGGTACCC", "modifications": "2'-OMe (M), 2'-F (F) as marked; uppercase DNA [2'-OMe: 1-4,7,8,10,13,14,22-26,28-31; 2'-F: 17]"}, "B5": {"name": "aptamer No. 47 (mixed)", "mixed": "GGGUAGCCGGAGGAGTCAGTAAUCGGUACCC", "modifications": "2'-OMe (M), 2'-F (F) as marked; uppercase DNA [2'-OMe: 1-4,7,8,10,13,14,23-26,28; 2'-F: 11,17,18,27]"}, "B6": {"name": "aptamer No. 28 (mixed)", "mixed": "GGGUAGCCGGAGGAGTCAGTAAUCGGTACCC", "modifications": "2'-OMe (M), 2'-F (F) as marked; uppercase DNA [2'-OMe: 1,2,3,4,7,8,10,13,14,23,24,25,26,28,29,30,31; 2'-F: 17]"}, "B7": {"name": "aptamer No. 33 (mixed)", "mixed": "GGGUAGCCGGAGGAGTCAGTAAUCGGTACCC", "modifications": "2'-OMe (M), 2'-F (F) as marked; uppercase DNA [2'-OMe: 1,2,3,4,7,8,10,13,14,21,23,24,25,26; 2'-F: 17]"}, "B8": {"name": "aptamer No. 31 (mixed)", "mixed": "GGGUAGCCGGAGGAGTCAGTAAUCGGTACCC", "modifications": "2'-OMe (M), 2'-F (F), PS (S) as marked; uppercase DNA [2'-OMe: 1,2,3,4,7,8,10,13,14,23,24,25,26,29,30,31; 2'-F: 17; PS: 6]"}, "B9": {"name": "aptamer No. 37 (mixed)", "mixed": "GGGUAGCCGGAGGAGTCAGTAAUCGGTACCC", "modifications": "2'-OMe (M), 2'-F (F) as marked; uppercase DNA; (NI) printed, likely (M) [2'-OMe: 1,2,3,4,7,10,13,14,23,24,25,26,28,29,30,31; 2'-F: 17; 8 printed (NI), likely 2'-OMe]"}, "B10": {"name": "aptamer No. 48 (mixed)", "mixed": "GGGUAGCCGGAGGAGTCAGTAAUCGGUACCC", "modifications": "2'-OMe (M), 2'-F (F) as marked; uppercase DNA [2'-OMe: 1-4,7,8,10,13,14,23-26,28; 2'-F: 17,27]"}, "B11": {"name": "aptamer No. 49 (mixed)", "mixed": "GGGUAGCCGGAGGAGTCAGTAAUCGGUACCC", "modifications": "2'-OMe (M), 2'-F (F) as marked; uppercase DNA; (PI) printed, likely (M) [2'-OMe: 1-4,7,8,10,14,23-26,28; 2'-F: 17,27; 13 printed (PI), likely 2'-OMe]"}, "B12": {"name": "aptamer No. 84 (mixed)", "RNA": "GGGUAGCCGGAGGAGUCAGUAAUCGGUACCC", "modifications": "2'-OMe (M), 2'-F (F), PS (S) as marked; uppercase DNA [2'-OMe: 1-5,7,8,10,11,13,14,21-31; 2'-F: 16,17,18,20; PS: 6,15,19; DNA: 9]"}, "B13": {"name": "aptamer No. 93 (mixed)", "RNA": "GGGUAGCCGGAGGAGUCAGUAAUCGGUACCC", "modifications": "2'-OMe (M), 2'-F (F), PS (S) as marked; uppercase DNA [2'-OMe: 1-5,7,8,10,11,13,14,21,23-26,28-31; 2'-F: 16-18,20,27; PS: 6,15,19; DNA: 9]"}, "B14": {"name": "aptamer No. 56 (mixed)", "mixed": "GGGUAGCCGGAGGAGTCAGTAAUCGGUACCC", "modifications": "2'-OMe (M), 2'-F (F), PS (S) as marked; uppercase DNA [2'-OMe: 1,2,3,4,7,8,10,13,14,21,22,23,24,25,26,28; 2'-F: 11,17,18,27; PS: 6,15,19]"}, "B15": {"name": "aptamer No. 91 (mixed)", "mixed": "GGGUAGCCGGAGGAGTCAGTAAUCGGUACCC", "modifications": "2'-OMe (M), 2'-F (F), PS (S) as marked; uppercase DNA [2'-OMe: 1-5,7,8,10,11,13,14,17,23-31; 2'-F: 18; PS: 6,15,19; DNA: 9,16,20]"}, "B16": {"name": "aptamer No. 63 (mixed)", "mixed": "GGGUAGCCGGAGGAGTCAGTAAUCGGUACCC", "modifications": "2'-OMe (M), 2'-F (F), PS (S) as marked; uppercase DNA [2'-OMe: 1,2,3,4,5,7,8,10,13,14,21,22,23,24,25,26,28,29,30,31; 2'-F: 11,17,18,27; PS: 6,15,19]"}, "B17": {"name": "aptamer No. 70 (mixed)", "RNA": "GGGUAGCCGGAGGAGUCAGUAAUCGGUACCC", "modifications": "2'-OMe (M), 2'-F (F), PS (S) as marked; uppercase DNA [2'-OMe: 1-5,7,8,10,13,14,21-26,28-31; 2'-F: 11,16,17,18,20,27; PS: 6,15,19]"}, "B18": {"name": "aptamer No. 83 (mixed)", "RNA": "GGGUAGCCGGAGGAGUCAGUAAUCGGUACCC", "modifications": "2'-OMe (M), 2'-F (F), PS (S) as marked; uppercase DNA [2'-OMe: 1-5,7,8,10,11,13,14,17,21-26,28-31; 2'-F: 16,18,20,27; PS: 6,15,19; DNA: 9]"}, "B19": {"name": "aptamer No. 77 (mixed)", "RNA": "GGGUAGCCGGAGGAGUCAGUAAUCGGUACCC", "modifications": "2'-OMe (M), 2'-F (F) as marked; uppercase DNA [2'-OMe: 1-5,7,8,10,13,14,21-26,29-31; 2'-F: 11,16,17,18,20,27; DNA: 28]"}, "B20": {"name": "aptamer No. 64 (mixed)", "mixed": "GGGUAGCCGGAGGAGTCAGTAAUCGGUACCC", "modifications": "2'-OMe (M), 2'-F (F), PS (S) as marked; uppercase DNA [2'-OMe: 1,2,3,4,5,7,8,10,13,14,17,21,22,23,24,25,26,28,29,30,31; 2'-F: 11,18,27; PS: 6,15,19]"}, "B21": {"name": "aptamer No. 69 (mixed)", "RNA": "GGGUAGCCGGAGGAGUCAGUAAUCGGUACCC", "modifications": "2'-OMe (M), 2'-F (F), PS (S) as marked; uppercase DNA [2'-OMe: 1-5,7,8,10,13,14,21-26,28-31; 2'-F: 11,16,17,18,20,27; PS: 6]"}, "B22": {"name": "aptamer No. 76 (mixed)", "RNA": "GGGUAGCCGGAGGAGUCAGUAAUCGGUACCC", "modifications": "2'-OMe (M), 2'-F (F) as marked; uppercase DNA [2'-OMe: 1-5,7,8,10,13,14,21-26,29-31; 2'-F: 11,16,17,18,20,27]"}, "B23": {"name": "aptamer No. 85 (mixed)", "RNA": "GGGUAGCCGGAGGAGUCAGUAAUCGGUACCC", "modifications": "2'-OMe (M), 2'-F (F), PS (S) as marked; uppercase DNA [2'-OMe: 1-5,7,8,10,11,13,14,21-26,28-31; 2'-F: 16,17,18,20,27; PS: 6,15,19; DNA: 9]"}}, "data": [{"biological_target": "T1, IL-17 (Homo sapiens, UniProt Q16552 Q16552:24-155)", "T1 sequence": "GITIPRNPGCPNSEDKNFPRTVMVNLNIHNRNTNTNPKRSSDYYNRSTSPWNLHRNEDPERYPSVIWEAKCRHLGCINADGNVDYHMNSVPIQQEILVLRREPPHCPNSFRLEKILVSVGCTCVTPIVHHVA", "assay": "SPR; IL-17R-Fc on chip", "conditions": "chain copies: 2", "protocol": "Whether aptamers shown by aptamer Nos. 1-49 inhibit the binding of IL-17 and IL-17 receptor was evaluated by the surface plasmon resonance method.\nFor the measurement, BIAcore2000 manufactured by BIAcore was used. […] As an analyte, IL-17 (100 or 150 nM) and an aptamer (50 or 100 nM) shown by aptamer No. 1-49 were mixed, maintained for 15 min and after that the mixture was flown.", "values": [{"binder": "B1", "binding signal": "13.3 % IL-17/IL-17R binding remaining"}, {"binder": "B2", "binding signal": "13.3 % IL-17/IL-17R binding remaining"}, {"binder": "B3", "binding signal": "13.2 % IL-17/IL-17R binding remaining"}, {"binder": "B4", "binding signal": "14.8 % IL-17/IL-17R binding remaining"}, {"binder": "B5", "binding signal": "17.6 % IL-17/IL-17R binding remaining"}, {"binder": "B6", "binding signal": "13.2 % IL-17/IL-17R binding remaining"}, {"binder": "B7", "binding signal": "15.9 % IL-17/IL-17R binding remaining"}, {"binder": "B8", "binding signal": "16.2 % IL-17/IL-17R binding remaining"}, {"binder": "B9", "binding signal": "15.5 % IL-17/IL-17R binding remaining"}, {"binder": "B10", "binding signal": "19.2 % IL-17/IL-17R binding remaining"}, {"binder": "B11", "binding signal": "19 % IL-17/IL-17R binding remaining"}]}, {"biological_target": "T1, IL-17", "assay": "SPR; IL-17 150 nM, aptamer 12.5 or 50 nM", "conditions": "chain copies: 2", "protocol": "Whether the synthesized aptamers inhibit the binding of IL-17 and IL-17 receptor was evaluated by the surface plasmon resonance method.\nFor the measurement, BIAcore T100 manufactured by GE Healthcare Bio Sciences was used. […] As an analyte, IL-17 (150 nM) and each aptamer (12.5 or 50 nM) shown by Table 3 were mixed, maintained for 15 min and after that the mixture was flown.", "values": [{"binder": "B12", "binding signal": "27.7 % IL-17/IL-17R binding remaining"}, {"binder": "B13", "binding signal": "30.6 % IL-17/IL-17R binding remaining"}, {"binder": "B14", "binding signal": "27 % IL-17/IL-17R binding remaining"}, {"binder": "B15", "binding signal": "35.1 % IL-17/IL-17R binding remaining"}, {"binder": "B16", "binding signal": "27.1 % IL-17/IL-17R binding remaining"}, {"binder": "B17", "binding signal": "35 % IL-17/IL-17R binding remaining"}, {"binder": "B18", "binding signal": "33.5 % IL-17/IL-17R binding remaining"}, {"binder": "B19", "binding signal": "23.9 % IL-17/IL-17R binding remaining"}, {"binder": "B20", "binding signal": "29.3 % IL-17/IL-17R binding remaining"}, {"binder": "B21", "binding signal": "18.4 % IL-17/IL-17R binding remaining"}, {"binder": "B22", "binding signal": "24.1 % IL-17/IL-17R binding remaining"}, {"binder": "B23", "binding signal": "27.8 % IL-17/IL-17R binding remaining"}]}]}
